Test results as given in the domain aggregation screens of Martell et al. (2025).

Test: soluble fraction after stress (log2 fold change); higher = more stays soluble; pooled small domains, quantitative proteomics
Settings: stress: 50 degC
How it was run: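 Pooled custom libraries of small protein domains were each held under stress at 50°C. The read-out, high-throughput quantitative proteomics, tracked how much of each protein stayed soluble. This is reported as a base-two log fold change used to indicate aggregation propensity. Higher values mean more protein remains in solution.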

For “HMKQISQNIHRLRKEKGMSQEQLAQALHVTRQTVSAWERGIAQPSLDVLGQIAQLLGVEPERLLYGE”, which “soluble fraction (log2)” value is on record?
The value was 0.153.

Which “soluble fraction (log2)” value does the source give for “HMSVDVGMQLRKLREERKISMRELARLSGLSANALSMIERGLTSPSVSTLNKLAGALEVPITAFFRI” here?
The value was -0.285.

Which “soluble fraction (log2)” value does the source give for “HMIANNFDEFVEKVSEAERKALNMPAGQEMTQKLLEMKLAANPNLTPEEWQRTKSEFMTFLFAVFVRE” here?
Its value is -0.842.

For “HMRDQAIDIYKTVHSVAEPYKEVFLLRVLGELSFKEISHIFGKSESWAKVTFFRAKIKVVEKREES”, which “soluble fraction (log2)” value is on record?
The value was -3.74.

For “HMRQDEKTLLYWIAGHLKREGRQITERSARHLVEQVGTDMENLSREMEKLIAYTMGRTEITGQDIDDI”, which “soluble fraction (log2)” value is on record?
Its value is -1.68.

Which “soluble fraction (log2)” value does the source give for “HMPKHFIDFSEGEVVSITDGPFKGFDGAISEIDNQKGKVKVMVSMFGRDTSVELDALQVKKV” here?
Its value is -0.107.

For “HMRSASFDIMSQKQSDATLGYERVYDTETNEVYKAYNGFTDDYDGERYKSISDNMYTKGISGYIEK”, which “soluble fraction (log2)” value is on record?
Its value is 0.327.

With “HMFPSLSPEEQAVVDVLQRNNDLQINMLSVQSGLTISRLTALLFQLEMKGVIKPLAGGMYHLL” as the sequence, how does the “soluble fraction (log2)” value read?
Its value is 0.0206.

Which “soluble fraction (log2)” value does the source give for “HMNTFDLSKLEEIILASRDKAMKTKEFTELDNLKNLFITAGLDVQMSKNGIKLIKGPKFNSSLLEDF” here?
Its value is -0.655.

For “HMWSQEPEYRPLYNSMDGFDAGQVVEMLQQSRIDYKVEPNSGALLVRSEDLADARLRLASAGISP”, which “soluble fraction (log2)” value is on record?
The value was -0.0156.

With “HMNKDEFLRRLEDALSGEVPASVIRENLNYYADYLSQELGKGRTMDEIIEEIGEPNIVARTIINSAEAA” as the sequence, how does the “soluble fraction (log2)” value read?
The value was 0.0708.

With “HMIRVVSIEDQPWFVAADVLKSLGMPTDKGVGKYLLALGSDERMLTTHGQIGGKGMAVTTIISESGLY” as the sequence, how does the “soluble fraction (log2)” value read?
Its value is -0.46.

With “HMIFNENLKSAREKKGLSQKEVAEAIGVAKSTYSLYESGNREPNVQTIKRIADVLNVSADVLLGL” as the sequence, how does the “soluble fraction (log2)” value read?
The value was 0.00744.

Which “soluble fraction (log2)” value does the source give for “HMREGLRHLRVRMPGGAGETLAMLYREGEVLSQSSDGAFIEVEIRVAQSVAGRLLQMPGVQLTEEVG” here?
The value was -0.21.

With “HMSDNYYSILGIETDATTDMIKRAYRRLSLELHPDRTKDNPILTEKYKKVNEAYGVLNDNDRKHIYDLQNI” as the sequence, how does the “soluble fraction (log2)” value read?
Its value is -0.216.

With “HMLGVKKFGGEAVIAGNIILRQRGTKWITGSNVGIGKDHTLFAKIEGYVVFERMRGRDGQQQISIYP” as the sequence, how does the “soluble fraction (log2)” value read?
The value was -0.101.

With “HMRRIADVVPEQLTREEAEELLETLAEQGEIHEEQALLARYILEQSLQGVAPEVEPLIRAKLLAGILMVY” as the sequence, how does the “soluble fraction (log2)” value read?
The value was -1.69.

For “HMEVTYQETLRVLYNAIDKLPPQTKEIILIGLDGKDNNEIAATLNISVNTVKTLKKNAYKTLRELLVD”, which “soluble fraction (log2)” value is on record?
Its value is -0.157.

For “HMGVLGVDALAAAAEVSVDTVRYYQHLGLLEPPRREGRRAVYGPSHLARMGEIRRLAAAGFTLDQIRQLAE”, which “soluble fraction (log2)” value is on record?
Its value is -2.1.

For “HMSINQIADKGYITRLIDNNANIKDVLYYDASSRILAIEDPKYMFYLKNTDWNQFAKEMGFKLE”, which “soluble fraction (log2)” value is on record?
The value was -0.657.

For “HMEEEEITIHIIGEVKYPGIVILKTGQRIIDAIDAAGGETEEADLNKINLAQLLSDGDKIYVPSINDN”, which “soluble fraction (log2)” value is on record?
The value was -0.0785.

Which “soluble fraction (log2)” value does the source give for “HMRDQQHNIYLLEKAKRLYEEFLGDNRHIIAAEMARFEAVLETQDAIIIQRAQQQFSEFLNRFDG” here?
The value was -1.63.

With “HMALEGTLARVSVRIPESGVGEIIFSLGGVRRSEAARSVSGRAIPRGTEVVILSYERGIATVQPYEELLTN” as the sequence, how does the “soluble fraction (log2)” value read?
The value was 0.013.

Which “soluble fraction (log2)” value does the source give for “HMIHEQSLHKIRNFIGSLPESLRTAFTLREQDGLSYEEIGKITNTPIGTVRSRIYRARESILDHINQE” here?
The value was -0.874.

With “HMNREEKKALTRRQIIDVATRLFRQHGIHNTDLKTIATEAGVSVVTFYKYFDSKEALIGTIAAEQ” as the sequence, how does the “soluble fraction (log2)” value read?
Its value is -0.281.

For “HMTKEEIVVNWLPRYTKRNLEDFGEYILLTNFNKYVEIFAEKFNVPILGRDANMISASAEGITIIN”, which “soluble fraction (log2)” value is on record?
The value was -0.191.

With “HMERLTVVPELLKRSLSEAQPLVTSARLRLEVSGGAPEDTSRAIVVGQKPPPGTRVQVGTTVIVTVQIQRP” as the sequence, how does the “soluble fraction (log2)” value read?
Its value is -0.0498.

With “HMQNNIEFTVLEEDAQKRLDVLLSEKTALSRSASASLIEEGGVLVNGRKEPKKYKPVRGEIITAILPE” as the sequence, how does the “soluble fraction (log2)” value read?
The value was -0.0707.

Which “soluble fraction (log2)” value does the source give for “HMDGEITLYKVVGYIKASDFDDKKNGFVIADDYITKRQAEDTMYEWKRKKTYPYLEIKEYKGKDPYK” here?
Its value is 0.295.

For “HMNKKEQYQNIISNFLEKMSEEDRLIFNMHFFKSINISQIARSIDREGYYVKTKIENLLADLKSLMIGNNL”, which “soluble fraction (log2)” value is on record?
Its value is -1.95.

For “HMDIDLNTIKKITLDDIHAFLSYLTTTYHSKAATRARKASSIRVFFNYLSAKANLIEVNPAQNLETPKLD”, which “soluble fraction (log2)” value is on record?
Its value is 0.0581.

With “HMLNEWIDYIDEHIKEELTAKNLATVFGYSERHFRNVFQIYYDIKLNDYIRRRKLYFAAQELKKG” as the sequence, how does the “soluble fraction (log2)” value read?
The value was -1.17.

For “HMSKKAIVINLLKRPDGASLKDIMQATYWQAHSVRGFISGSLTKKMGLNVESFKRPDGERAYRIN”, which “soluble fraction (log2)” value is on record?
Its value is -2.3.

Which “soluble fraction (log2)” value does the source give for “HMGDGMEVWVNGSPVNLTGKDSFIFVDIFDFIDFDLTASKGRLIVIKVNGEYAEYTRPLHNGDTIEIYWEE” here?
Its value is -0.0714.

With “HMADVYFDGKFLGETPVTVAVSTTGKPAHEISLIRGGYEPWSTTYQGNPRPGQTATVMAILVHA” as the sequence, how does the “soluble fraction (log2)” value read?
Its value is 0.287.

Which “soluble fraction (log2)” value does the source give for “HMGEDLTIDQLAAEVDMTVRNIRAHQARGLLPPPTIKGRIGYYGPLHRRRLQQIRAMQEEGLNLAAIAKVV” here?
Its value is -0.609.

With “HMRFSYLNIETRKDISSLINKSEITHSSYNNNEYLYKIKSKKTDDFKDLISLIDEKDLISYSIDS” as the sequence, how does the “soluble fraction (log2)” value read?
Its value is -0.838.

For “HMDDAVSHPDAGHIVTVTKVSADGTAEVMYRGASWRAKTADGSPLTAGSARIVRVDGAALVVEP”, which “soluble fraction (log2)” value is on record?
The value was 0.052.

Which “soluble fraction (log2)” value does the source give for “HMPTLTPFDVARIENAINPRLNLETAAKLKPWIAAGYTAQETADGTGFSPDTVKKYAAIFRK” here?
Its value is 0.103.

Which “soluble fraction (log2)” value does the source give for “HMGEWNSVFSVPSSVVDKHLKTASSVYVKVLLVILRNAGNRISDQQISEQLSVPVDEVQEAIRYWNAAGIF” here?
Its value is -0.247.

Which “soluble fraction (log2)” value does the source give for “HMRQYTPEQLETAVLVLEEVRQGRRLDRALRSHPMPDGRLIAKHVLVAAYRKLVAEGTWKEDPEFLSRIRM” here?
The value was -0.237.

With “HMGDPMAIMQLSSNTTPEYWEAYQKYHIQEYEQSNFIRYVNGISVLDDDFVDKVLITIDQHGRIFSELKS” as the sequence, how does the “soluble fraction (log2)” value read?
Its value is -2.41.

With “HMETLTPQEHKVLLLAVKGRTNGEIASELGIAQNTVKNHLAHIYAKMGVGNRTELASEYLRRIH” as the sequence, how does the “soluble fraction (log2)” value read?
The value was 0.0726.

For “HMEEIQLILAKNLKSIREKEKLSLEKVSQLTGVSKTMIGQIERGDSSPTLTTIWKIANGLKVSFTSLINNP”, which “soluble fraction (log2)” value is on record?
The value was -2.01.

Which “soluble fraction (log2)” value does the source give for “HMAMSAGEVVERIREHVGHPATIKELMRVLAIPNEERYRFRRRIKQLVEAGELIRIRGNRYGLADR” here?
Its value is -1.85.

With “HMSFVEVTVSELKNYVNSHARIKLKSGKEFKGFILDANEEGVIIKVQLRGGTAESTISYNRIDRAAVF” as the sequence, how does the “soluble fraction (log2)” value read?
Its value is -1.69.

With “HMAQISDEGLLRGLIVEMFEANPAVVEELLGGRDRKKGFVIGQIMKKTKGMANPALLDQLFYEELEKL” as the sequence, how does the “soluble fraction (log2)” value read?
The value was -0.867.

With “HMEEKVEVPNLSGKTYQQAKALLESYGLVAAKGGEEESEEPVGKVSRWSSAGKSVKKGTTITVWISGGI” as the sequence, how does the “soluble fraction (log2)” value read?
The value was -0.0709.

Which “soluble fraction (log2)” value does the source give for “HMDTTLFGLFQNVILTQEDYEELSRTIVEDLDGLIDRLSAYMTSTGKTYKNHKATLLSWYLQDEKKFK” here?
The value was -1.82.

For “HMADIGRMKELIDILNRASAVYYQGKDEIMSNFEYDKLYDELVSLEKESGLVLAGSPTQKVGY”, which “soluble fraction (log2)” value is on record?
The value was 0.153.

For “HMKIATIELVKEAVKSKLGKFTKRDIMELVPSVGKTTIENMLKQLIGEGYIERHGKGRATFYVK”, which “soluble fraction (log2)” value is on record?
Its value is -0.56.

With “HMLDDDAGMIQAILRKAPGHYLPLHDKSDPASIQAQLGISKAQFKRAVGTLMKQGLIRQVKGDGLYLTQ” as the sequence, how does the “soluble fraction (log2)” value read?
The value was 0.0324.

Which “soluble fraction (log2)” value does the source give for “HMNAVDLLSPQEQRIFELIGEGMSNRQIADVMYLAEKTVKNYVSNVLMKLGMERRTEAAALAARLDERQK” here?
The value was -0.114.

With “HMVRQKYKSNFITVGDKSLTIHDWAQRLNLSQYALRNRYKEFGKEWVEKAIKTILETGDNTHIYK” as the sequence, how does the “soluble fraction (log2)” value read?
The value was -0.847.

Which “soluble fraction (log2)” value does the source give for “HMKSVTAPLPGTVTQILVKVGDAVKAGDTVLMLEAMKMENSITAEAAGTVKAIRVEKGAQVQGGDVLIEM” here?
Its value is 0.156.
